The results in this text go back to patent US20230021388A1 (VELOSBIO, published 2023).

Residue numbers refer to the chain shown, from its start. Names and notes keep the numbering of the source.

The chains are these.
B1: Ab1 Fab variant H1 T32A + H2 F58I (Fab, V domains shown)
VH: QVQLQESGPGLVKPSQTLSLTCTVSGYAFAAYNIHWVRQAPGQGLEWMGSIDPYDGGSSYNQKFKDRLTISKDTSKNQVVLTMTNMDPVDTATYYCARGWYYFDYWGHGTLVTVSS
VL: DIVMTQTPLSLPVTPGEPASISCRASKSISKYLAWYQQKPGQAPRLLIYSGSTLQSGIPPRFSGSGYGTDFTLTINNIESEDAAYYFCQQHDESPYTFGEGTKVEIK
notes: Fab
B2: Ab1 Fab variant H1 T32A + H2 F58I, G66E (Fab, V domains shown)
VH: B1 VH with G56E
VL: B1 VL
notes: Fab
B3: Ab1 Fab variant H1 T32A + H2 F58V, N71H (Fab, V domains shown)
VH: B1 VH with I51V, N61H
VL: B1 VL
notes: Fab
B4: Ab1 Fab variant H1 T32A + H2 F58V, G66E, S69V (Fab, V domains shown)
VH: B1 VH with I51V, G56E, S59V
VL: B1 VL
notes: Fab
B5: Ab1 Fab variant H1 T32A + H2 F58V, G66E (Fab, V domains shown)
VH: B1 VH with I51V, G56E
VL: B1 VL
notes: Fab
B6: Ab1 Fab variant H1 T32A + H2 G66E, S69V, N71H (Fab, V domains shown)
VH: B1 VH with I51F, G56E, S59V, N61H
VL: B1 VL
notes: Fab
B7: Ab1 Fab variant H1 T32A + H2 N71H (Fab, V domains shown)
VH: B1 VH with I51F, N61H
VL: B1 VL
notes: Fab
B8: Ab1 Fab variant H1 T32A + H2 G66E (Fab, V domains shown)
VH: B1 VH with I51F, G56E
VL: B1 VL
notes: Fab
B9: Ab1 Fab variant H1 T32A + H2 F58I, N71H (Fab, V domains shown)
VH: B1 VH with N61H
VL: B1 VL
notes: Fab
B10: Ab1 Fab variant H1 T32A + H2 F58V (Fab, V domains shown)
VH: B1 VH with I51V
VL: B1 VL
notes: Fab
B11: Ab1 Fab variant H1 T32A + H2 S69V (Fab, V domains shown)
VH: B1 VH with I51F, S59V
VL: B1 VL
notes: Fab
B12: Ab1 Fab variant H1 T32A + H2 F58I, S69V (Fab, V domains shown)
VH: B1 VH with S59V
VL: B1 VL
notes: Fab
B13: Ab1 Fab variant H1 T32A + H2 F58I, G66E, N71H (Fab, V domains shown)
VH: B1 VH with G56E, N61H
VL: B1 VL
notes: Fab
B14: Ab1 Fab variant H1 T32A + H2 F58V, S69V, N71H (Fab, V domains shown)
VH: B1 VH with I51V, S59V, N61H
VL: B1 VL
notes: Fab
B15: Ab1 Fab variant L3 E111I (Fab, V domains shown)
VH: B1 VH with A30T, I51F
VL: B1 VL with E93I
notes: Fab
B16: Ab1 Fab variant L3 T138F (Fab, V domains shown)
VH: B1 VH with A30T, I51F
VL: B1 VL with T97F
notes: Fab
B17: Ab1 Fab variant L3 Q108R (Fab, V domains shown)
VH: B1 VH with A30T, I51F
VL: B1 VL with Q90R
notes: Fab
B18: Ab1 Fab variant L3 D110H (Fab, V domains shown)
VH: B1 VH with A30T, I51F
VL: B1 VL with D92H
notes: Fab
B19: Ab1 Fab variant L3 S135G (Fab, V domains shown)
VH: B1 VH with A30T, I51F
VL: B1 VL with S94G
notes: Fab
B20: Ab1 Fab variant L3 Q108A (Fab, V domains shown)
VH: B1 VH with A30T, I51F
VL: B1 VL with Q90A
notes: Fab
B21: Ab1 Fab variant L3 Q108L (Fab, V domains shown)
VH: B1 VH with A30T, I51F
VL: B1 VL with Q90L
notes: Fab
B22: Ab1 Fab variant L3 Y137V (Fab, V domains shown)
VH: B1 VH with A30T, I51F
VL: B1 VL with Y96V
notes: Fab
B23: Ab1 Fab variant L3 Q107S (Fab, V domains shown)
VH: B1 VH with A30T, I51F
VL: B1 VL with Q89S
notes: Fab
B24: Ab1 Fab variant L3 S135V (Fab, V domains shown)
VH: B1 VH with A30T, I51F
VL: B1 VL with S94V
notes: Fab
B25: Ab1 Fab variant L3 D110N (Fab, V domains shown)
VH: B1 VH with A30T, I51F
VL: B1 VL with D92N
notes: Fab
B26: Ab1 Fab variant L3 S135P (Fab, V domains shown)
VH: B1 VH with A30T, I51F
VL: B1 VL with S94P
notes: Fab
B27: Ab1 Fab variant L3 H109Q (Fab, V domains shown)
VH: B1 VH with A30T, I51F
VL: B1 VL with H91Q
notes: Fab
B28: Ab1 Fab variant L3 S135H (Fab, V domains shown)
VH: B1 VH with A30T, I51F
VL: B1 VL with S94H
notes: Fab
B29: Ab1 Fab variant L3 T138S (Fab, V domains shown)
VH: B1 VH with A30T, I51F
VL: B1 VL with T97S
notes: Fab
B30: Ab1 Fab variant L3 H109N (Fab, V domains shown)
VH: B1 VH with A30T, I51F
VL: B1 VL with H91N
notes: Fab
B31: Ab1 Fab variant L3 Y137T (Fab, V domains shown)
VH: B1 VH with A30T, I51F
VL: B1 VL with Y96T
notes: Fab
B32: Ab1 Fab variant L3 E111L (Fab, V domains shown)
VH: B1 VH with A30T, I51F
VL: B1 VL with E93L
notes: Fab

T1 sequence (Q01973 30-406 limits assumed): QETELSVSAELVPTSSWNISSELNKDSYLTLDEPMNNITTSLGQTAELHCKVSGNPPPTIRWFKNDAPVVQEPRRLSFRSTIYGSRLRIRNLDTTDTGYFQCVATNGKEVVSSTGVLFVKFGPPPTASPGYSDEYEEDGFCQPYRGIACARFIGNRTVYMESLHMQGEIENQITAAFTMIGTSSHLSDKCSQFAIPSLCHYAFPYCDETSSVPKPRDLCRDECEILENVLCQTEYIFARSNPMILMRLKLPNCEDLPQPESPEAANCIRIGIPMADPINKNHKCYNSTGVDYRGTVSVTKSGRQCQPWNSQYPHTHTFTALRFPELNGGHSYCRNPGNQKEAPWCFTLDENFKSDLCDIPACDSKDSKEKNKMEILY

The first test concerns the target T1, recombinant human ROR1 extracellular domain (human, UniProt Q01973 30-406).
T1 construct: biotinylated for the filter lifts; also called huROR1-ECD; human ROR1-ECD
The test is described as follows: ELISA with prolonged wash, soluble Fab on coated huROR1-ECD. How it is done: The previously described filter lift assay provides a visual, qualitative assessment of antigen binding (Example 1). In order to assess the ROR1 binding activity of Ab1 Fab in a more quantitative fashion, an ELISA assay was developed. A 96-well Costar-3366 plate was coated with 50 μL/well of 1 μg/mL human ROR1-ECD (ACROBiosystems, cat. #RO1-H522y) in PBS overnight at 4° C. The plate was rinsed once with PBS-T and blocked with 100 μL/well of 5% M-P for 1 h at 25° C. Fab samples were serially diluted 3-fold using 5% M-P and 50 μL/well was incubated for 1 h at 25° C. The plate was washed three times with PBS-T and 50 μL/well anti-human kappa, and HRP conjugate (Southern Biotech, cat. #2060-05) diluted 10,000-fold in 5% M-P was added for 1 h at 25° C. In certain assays (extended wash format), the plate was placed in large volumes (up to 1 L) of PBS-T and incubated, with mixing, for 2-5 h prior to the addition of anti-human kappa, HRP conjugate. The plate was washed three times with PBS-T, and developed with 50 μL/well 1-Step Ultra TMB-ELISA (Thermo Scientific, cat. #34028). The reaction was terminated by the addition of 2 N H2504 and the A450 was determined using a Spectramax plate reader.
Subsequently, the libraries were screened by capture lift to identify the strongest binding variants. The identity of the variants was determined by DNA sequencing and the relative affinities were characterized using an ELISA (described in Example 2) modified to enable further discrimination between the highest affinity variants. Specifically, following the initial incubation with soluble Fab, the plates were washed for a prolonged time (>1 h) in large volumes of PBS-T. The plates were then developed as described in Example 2.
In general terms: ELISA stands for enzyme-linked immunosorbent assay.
Turning to B1, the Kd – broadly, the constant that tells how readily two partners part at equilibrium – was determined as 4.5 nM.
Turning to B2, the dissociation constant Kd is 5 nM.
Still for that read-out and setting: for B3 the value was 2.4 nM; for B4, 8 nM; for B5, 3 nM.
Same read-out and setting: the figure for B6 is 3.2 nM; for B7 it is 2.1 nM; for B8 it is 2.7 nM.
For B9, the dissociation constant (Kd) was 2.2 nM.
In the case of B10, the Kd worked out at 3.2 nM.
In the case of B11, the dissociation constant (Kd) was 3.3 nM.
On the same count and under the same terms, for B12 the value was 8.5 nM; for B13, 3.4 nM; for B14, 3.9 nM.

The target in a further test is T1, recombinant human ROR1 extracellular …. The test can be described thus: capture filter lift. How it is done: Subsequently, the filter was applied to the agar plates as described above. For detection of antigen binding, the filter was rinsed briefly in PBS, and transferred to biotinylated huROR1-ECD (ACROBiosystems, cat. #RO1-H522y) in 5% M-P.
Filters were incubated with 2.3 nM biotinylated ROR1 diluted in 5% M-P for 2 h at 25° C. with constant agitation, and washed 5 times, 2 minutes each wash, with constant agitation in PBS-T. Alternatively, filters were washed more rapidly using a squirt bottle and sintered glass funnel for vacuum filtration. The filters were transferred to 10 mL of High Sensitivity Neutravidin, HRP conjugate (Thermo Scientific, cat. #31030) diluted 5000-fold in 1% BSA in PBS and incubated for 1 h at 25° C. The filters were then washed 5 times in PBS-T and were developed with 1-Step Ultra TMB-Blotting.
All libraries were initially screened by capture lift to identify variants with improved binding. The capture lift assay, described in Example 1, enables the filter lift assay to discern variants that bind antigen more strongly based on the staining intensity. In order to determine the optimal concentration of antigen to use for screening, biotinylated huROR1-ECD was titrated on a capture lift of Ab1 Fab. Binding to Ab1 was clearly visible at antigen concentrations ≥23 nM and the signal was diminished at lower huROR1 concentrations. […] In addition, for more stringent screening, filters were probed with lower concentrations of antigen and/or development of the filter was terminated earlier, before the Ab1 staining was visible. […] In this example, approximately 250 library variants were plated. Twelve variants clearly bound huROR1 (FIG. 4, numbered).
On to B15, for which the binding result is listed as “binds”.
B16: the binding result is listed as “binds”.
Same read-out and setting: the entry for B17 is “binds”.
The same measure, in the same setting: the entry for B18 is “binds”; for B19 it is “binds”.
In the case of B20, the binding result is “binds”.
On the same count and under the same terms, the entry for B21 is “binds”; for B22 it is “binds”.
The same measure, in the same setting: for B23 the value was “binds”.
Same read-out and setting: the entry for B24 is “binds”; for B25 it is “binds”; for B26 it is “binds”.
In the case of B27, the binding result is recorded as “binds”.
Same read-out and setting: for B28 the value was “binds”; for B29, “binds”.
For the molecule B30, the binding result was “binds”.
B31: the binding result is recorded as “binds”.
The same measure, in the same setting: the entry for B32 is “binds”.
